Data from paper PMC8876964 (Pharmaceuticals, 2022).
Like-named read-outs stand apart in the source and are kept apart here.

Columns and labels:
[1] = Biodistribution in normal CD-1 mice; assay type: in vivo; conditions: mouse, iv, total radioactivity, 0.37 MBq i.v., n = 4–5, mean ± SD
Procedure: The comparison of non-albumin binding and albumin binding peptides were evaluated in CD-1 mice at 1, 4, 24, and 48 h. ^177Lu-labeled peptides were prepared at the specific activity of 10 MBq/nmol. Mice (n = 4–5) were intravenously injected with 0.37 MBq (10 µCi) of respective radioligands diluted in 100 μL saline and sacrificed at specified time points. Selected organs were collected, weighed, and counted for activity. The results were reported as the percentage of the injected radioactivity per gram of tissue mass (% ID/g) and the radioactivity was calibrated using a known standard.

BxPC-3 tumors = assay: Therapy studies in BxPC-3 tumor-bearing mice; assay type: in vivo, athymic nude mice
Procedure: Therapy studies were conducted in athymic nude mice bearing BxPC-3 tumors when the tumor volume reached about 100 mm^3. […] Tumor volumes and body weights were monitored three times a week. Individual tumor size was calculated using the formula (length × width × width)/2. The mice were euthanized when the tumor reached 1500 mm^3, ulceration of >4 mm was present, or significant stress due to weight loss. […] The doses were administered via tail vein and tumor size and mouse weights were recorded three times a week. Tumor volumes were plotted versus time to determine tumor growth inhibition.

[2] = Biodistribution in mice bearing BxPC-3 tumor xenografts; assay type: in vivo; conditions: athymic nude, mouse, iv, total radioactivity, BxPC-3 tumor mice, 0.37 MBq i.v.; for tissue uptake at 1 h: 1 h p.i.; for tissue uptake at 48 h: 48 h p.i.
Procedure: Animals were supplied from Charles River Laboratories (Wilmington, MA, USA), and were handled in compliance with the Guidelines for Care and Use of Research Animals established by the Division of Comparative Medicine and the Animal Studies Committee of Washington University School of Medicine. Biodistribution studies were conducted in athymic nude mice bearing subcutaneous BxPC-3 tumors. Tumors were implanted on the right flank with 5 × 10^6 cells about 4 weeks before the performance of the experiments. Biodistribution studies were performed when the tumors reached approximately 5–7 mm in diameter. […] Tissues of interest (blood, lung, liver, spleen, kidney, muscle, heart, bone, and tumor) were collected and weighed, and the radioactivity was measured using a gamma counter. The results were expressed as the percentage of injected dose per gram of tissue (%ID/g).

serum albumin = conditions: cited from earlier work
[3] = PET/CT imaging of BxPC-3 tumor-bearing mice; assay type: in vivo; conditions: athymic nude, mouse, iv, 3.7 MBq, total radioactivity
Procedure: For blocking study, excess of unlabeled peptides was administered 1–2 min before radiotracer injection. The PET scans were acquired for 20 min on an Inveon small animal PET/CT scanner (Siemens Medical Solutions, Malvern, PA, USA). Static images were reconstructed with the maximum a posteriori (MAP) reconstruction algorithm and corrected for decay. Image analysis was performed using the Inveon Research Workstation image display software (Siemens). Regions of interest (ROI) were selected based on co-registered anatomical CT images, and the average or maximum standard uptake value (SUV) was calculated as the mean or maximum regional radioactivity concentration (nCi/cc) x animal weight (g)/decay-corrected amount of injected dose (nCi).

DX3puroβ6 tumor = conditions: mouse, in vivo; cited from earlier work
[4] = blood, n = 4–5, mean ± SD, read-out: blood uptake
[5] = n = 4–5, mean ± SD, read-out: tumor uptake

With CC(C)C[C@H](NC(=O)[C@H](CC(=O)O)NC(=O)CNC(=O)[C@H](CCCNC(=N)N)NC(=O)[C@H](CC(C)C)NC(=O)[C@H](CC(N)=O)NC(=O)[C@@H]1CCCN1C(=O)[C@@H](NC(=O)[C@H](C)NC(=O)[C@H](CC(N)=O)NC(=O)CCOCCOCCOCCOCCOCCOCCOCCOCCOCCOCCOCCOCCOCCOCCOCCOCCOCCOCCOCCOCCOCCOCCOCCOCCOCCOCCOCCOCCNC(=O)CN1CCN(CC(=O)O)CCN(CC(=O)O)CCN(CC(=O)O)CC1)C(C)C)C(=O)N[C@@H](CCC(N)=O)C(=O)N[C@H](C(=O)N[C@@H](CC(C)C)C(=O)N[C@@H](C)C(=O)N[C@@H](CCC(N)=O)C(=O)N[C@@H](CCCCN)C(=O)N[C@H](C(=O)N[C@@H](C)C(=O)N[C@@H](CCCNC(=N)N)C(=O)N[C@H](C(=O)NCCOCCOCCOCCOCCOCCOCCOCCOCCOCCOCCOCCOCCOCCOCCOCCOCCOCCOCCOCCOCCOCCOCCOCCOCCOCCOCCOCCOCCC(N)=O)[C@@H](C)O)C(C)C)C(C)C [metal not drawn] the tissue uptake at 1 h ([1]; blood) was 0.11 ± 0.04 %ID/g, the body weight change (BxPC-3 tumors; 27.8 MBq, n = 8, during the course of the study) was “no significant weight loss” and the “tumor inhibition in comparison to control group” value (BxPC-3 tumors; 27.8 MBq, n = 8, until day 23 (p < 0.001 for the IBA peptide)) was “did not show significant tumor growth inhibition”.

In the case of CC(C)C[C@H](NC(=O)[C@H](CC(=O)O)NC(=O)CNC(=O)[C@H](CCCNC(=N)N)NC(=O)[C@H](CC(C)C)NC(=O)[C@H](CC(N)=O)NC(=O)[C@@H]1CCCN1C(=O)[C@@H](NC(=O)[C@H](C)NC(=O)[C@H](CC(N)=O)NC(=O)CCOCCOCCOCCOCCOCCOCCOCCOCCOCCOCCOCCOCCOCCOCCOCCOCCOCCOCCOCCOCCOCCOCCOCCOCCOCCOCCOCCOCCNC(=O)CCSC1CC(=O)N(CCC(=O)NCCNC(=O)[C@H](CCCCNC(=O)CN2CCN(CC(=O)O)CCN(CC(=O)O)CCN(CC(=O)O)CC2)NC(=O)c2ccc(-c3ccc(N=Nc4ccc5c(S(=O)(=O)O)cc(S(=O)(=O)O)c(N)c5c4O)cc3)cc2)C1=O)C(C)C)C(=O)N[C@@H](CCC(N)=O)C(=O)N[C@H](C(=O)N[C@@H](CC(C)C)C(=O)N[C@@H](C)C(=O)N[C@@H](CCC(N)=O)C(=O)N[C@@H](CCCCN)C(=O)N[C@H](C(=O)N[C@@H](C)C(=O)N[C@@H](CCCNC(=N)N)C(=O)N[C@H](C(=O)NCCOCCOCCOCCOCCOCCOCCOCCOCCOCCOCCOCCOCCOCCOCCOCCOCCOCCOCCOCCOCCOCCOCCOCCOCCOCCOCCOCCOCCC(N)=O)[C@@H](C)O)C(C)C)C(C)C (stereo partly shown) [[^177Lu]Lu-EB-DOTA-(PEG28)2-A20FMDV2, metal not drawn], the tissue uptake at 1 h ([1]; blood) is reported as 5.36 ± 1.06 %ID/g, the tissue uptake at 48 h ([1]; blood, 48 h p.i., read-out: blood uptake) is reported as 0.41 ± 0.03 %ID/g and the tissue uptake at 48 h ([1]; kidney, 48 h, read-out: kidney uptake) is reported as 44.3 ± 5.13 %ID/g. The tissue uptake at 1 h [2, 4] was 4.8 ± 0.69 %ID/g, the tissue uptake at 4 h ([2]; blood, 4 h, n = 4–5, mean ± SD) was 1.23 ± 0.3 %ID/g and the tissue uptake at 48 h [2, 4] was 0.28 ± 0.01 %ID/g. The tissue uptake at 1 h [2, 5] was 5.2 ± 1.02 %ID/g, the tissue uptake at 48 h [2, 5] was 4.29 ± 0.78 %ID/g and the tissue uptake ([2]; lung, liver, spleen, muscle, heart, bone, all time points (1, 4, 24, 48 h), read-out: uptake in normal organs such as lung, liver, spleen, muscle, heart, and bone) was under 4 %ID/g. The % intact in human serum was over 90%, the “tumor volumes in comparison to the control group” value (BxPC-3 tumors; single dose of 37 MBq, BxPC-3 tumor-bearing mice, n = 8, p < 0.001) was “significantly reduced” and the mortality (BxPC-3 tumors; single dose of 37 MBq, two weeks after radiotracer injection) was “death of all mice”.

In the case of O=C(O)CCCc1ccc(I)cc1 [4-(p-iodophenyl)butyric acid], the “non-covalent binding with serum albumin” value (serum albumin) is listed as “micromolar range”.

For CC(C)C[C@H](NC(=O)[C@H](CC(=O)O)NC(=O)CNC(=O)[C@H](CCCNC(=N)N)NC(=O)[C@H](CC(C)C)NC(=O)[C@H](CC(N)=O)NC(=O)[C@@H]1CCCN1C(=O)[C@@H](NC(=O)[C@H](C)NC(=O)[C@H](CC(N)=O)NC(=O)CCOCCOCCOCCOCCOCCOCCOCCOCCOCCOCCOCCOCCOCCOCCOCCOCCOCCOCCOCCOCCOCCOCCOCCOCCOCCOCCOCCOCCNC(=O)CN1CCN(CC(=O)O)CCN(CC(=O)O)CCN(CC(=O)O)CC1)C(C)C)C(=O)N[C@@H](CCC(N)=O)C(=O)N[C@H](C(=O)N[C@@H](CC(C)C)C(=O)N[C@@H](C)C(=O)N[C@@H](CCC(N)=O)C(=O)N[C@@H](CCCCN)C(=O)N[C@H](C(=O)N[C@@H](C)C(=O)N[C@@H](CCCNC(=N)N)C(=O)N[C@H](C(=O)NCCOCCOCCOCCOCCOCCOCCOCCOCCOCCOCCOCCOCCOCCOCCOCCOCCOCCOCCOCCOCCOCCOCCOCCOCCOCCOCCOCCOCCC(N)=O)[C@@H](C)O)C(C)C)C(C)C [[^68Ga]Ga-DOTA-(PEG28)2-A20FMDV2, metal not drawn], the SUV at 1 h ([3]; mice receiving blocking agent (excess unlabeled peptide 1–2 min before), 1 h after 3.7 MBq i.v., n = 3, read-out: tumor SUVmax) was 1.71 ± 0.04 SUV, the SUV at 1 h ([3]; mice receiving blocking agent (excess unlabeled peptide 1–2 min before), 1 h after 3.7 MBq i.v., n = 3, read-out: tumor SUVmean) was 1.22 ± 0.12 SUV and the SUV at 1 h ([3]; non-block mice, 1 h after i.v. injection of 3.7 MBq, n = 3, read-out: tumor SUVmax) was 3.85 ± 1.06 SUV. The SUV at 1 h ([3]; non-block mice, 1 h after i.v. injection of 3.7 MBq, n = 3, read-out: tumor SUVmean) was 2.77 ± 0.38 SUV.

For NAVPNLRGDLQVLAQKVART [A20FMDV2], the tumor uptake (DX3puroβ6 tumor) is given as 0.66 ± 0.09 % ID/g.

For Cc1cc(-c2ccc(/N=N/c3ccc4c(S(=O)(=O)O)cc(S(=O)(=O)O)c(N)c4c3O)c(C)c2)ccc1/N=N/c1ccc2c(S(=O)(=O)O)cc(S(=O)(=O)O)c(N)c2c1O [Evans Blue], the “IC50 of reversible binding to serum albumin” value (serum albumin) is given as “micromolar range”.
